Columns and labels:
Assay in all cases: two-hybrid library CCNG1;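 further: natural log of median RNA to DNA barcode read ratio; higher means stronger binding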
4H3427-bN = target: T1, 4H3427-bN
T1 chain: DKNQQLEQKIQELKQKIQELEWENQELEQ

4H454-bN = target: T2, 4H454-bN
T2 chain: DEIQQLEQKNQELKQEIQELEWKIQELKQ

4H607-bN = target: T3, 4H607-bN
T3 chain: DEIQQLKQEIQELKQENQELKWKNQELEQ

4H883-bN = target: T4, 4H883-bN
T4 chain: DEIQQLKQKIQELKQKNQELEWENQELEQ

4H1845-bN = target: T5, 4H1845-bN
T5 chain: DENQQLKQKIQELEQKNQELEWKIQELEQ

4H2697-bN = target: T6, 4H2697-bN
T6 chain: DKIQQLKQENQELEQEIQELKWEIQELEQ

4H754-bN = target: T7, 4H754-bN
T7 chain: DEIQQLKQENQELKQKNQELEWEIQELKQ

4H3185-bN = target: T8, 4H3185-bN
T8 chain: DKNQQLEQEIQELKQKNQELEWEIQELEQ

4H3782-bN = target: T9, 4H3782-bN
T9 chain: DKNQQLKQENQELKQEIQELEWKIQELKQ

4H918-bN = target: T10, 4H918-bN
T10 chain: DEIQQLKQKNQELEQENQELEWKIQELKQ

4H967-bN = target: T11, 4H967-bN
T11 chain: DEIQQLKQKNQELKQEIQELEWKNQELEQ

4H717-bN = target: T12, 4H717-bN
T12 chain: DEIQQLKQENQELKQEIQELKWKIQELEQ

4H3354-bN = target: T13, 4H3354-bN
T13 chain: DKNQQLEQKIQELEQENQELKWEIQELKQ

4H2442-bN = target: T14, 4H2442-bN
T14 chain: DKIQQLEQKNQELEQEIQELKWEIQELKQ

4H3606-bN = target: T15, 4H3606-bN
T15 chain: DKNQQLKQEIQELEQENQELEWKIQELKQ

4H462-bN = target: T16, 4H462-bN
T16 chain: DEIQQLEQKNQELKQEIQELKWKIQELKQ

4H3112-bN = target: T17, 4H3112-bN
T17 chain: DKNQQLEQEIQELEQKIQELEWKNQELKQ

4H370-bN = target: T18, 4H370-bN
T18 chain: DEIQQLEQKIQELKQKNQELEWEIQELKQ

4H797-bN = target: T19, 4H797-bN
T19 chain: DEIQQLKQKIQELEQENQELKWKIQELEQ

4H3843-bN = target: T20, 4H3843-bN
T20 chain: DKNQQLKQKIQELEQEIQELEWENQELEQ

4H687-bN = target: T21, 4H687-bN
T21 chain: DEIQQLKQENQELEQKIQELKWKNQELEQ

4H331-bN = target: T22, 4H331-bN
T22 chain: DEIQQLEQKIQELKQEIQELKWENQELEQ

4H338-bN = target: T23, 4H338-bN
T23 chain: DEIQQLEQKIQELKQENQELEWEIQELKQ

4H2618-bN = target: T24, 4H2618-bN
T24 chain: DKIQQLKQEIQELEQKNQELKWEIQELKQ

4H2588-bN = target: T25, 4H2588-bN
T25 chain: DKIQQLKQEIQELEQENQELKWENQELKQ

4H619-bN = target: T26, 4H619-bN
T26 chain: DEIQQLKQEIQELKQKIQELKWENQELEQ

4H953-bN = target: T27, 4H953-bN
T27 chain: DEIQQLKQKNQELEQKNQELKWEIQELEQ

4H3855-bN = target: T28, 4H3855-bN
T28 chain: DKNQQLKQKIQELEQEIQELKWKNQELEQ

4H4001-bN = target: T29, 4H4001-bN
T29 chain: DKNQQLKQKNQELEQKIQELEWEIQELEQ

4H2576-bN = target: T30, 4H2576-bN
T30 chain: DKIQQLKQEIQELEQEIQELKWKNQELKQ

4H2667-bN = target: T31, 4H2667-bN
T31 chain: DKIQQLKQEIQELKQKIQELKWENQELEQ

4H570-bN = target: T32, 4H570-bN
T32 chain: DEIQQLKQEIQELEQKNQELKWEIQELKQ

4H908-bN = target: T33, 4H908-bN
T33 chain: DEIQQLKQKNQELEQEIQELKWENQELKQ

4H2610-bN = target: T34, 4H2610-bN
T34 chain: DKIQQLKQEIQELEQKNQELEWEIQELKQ

4H3189-bN = target: T35, 4H3189-bN
T35 chain: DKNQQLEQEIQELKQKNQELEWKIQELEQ

4H2729-bN = target: T36, 4H2729-bN
T36 chain: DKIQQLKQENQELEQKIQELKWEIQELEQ

4H568-bN = target: T37, 4H568-bN
T37 chain: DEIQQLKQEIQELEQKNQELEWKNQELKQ

4H72-bN = target: T38, 4H72-bN
T38 chain: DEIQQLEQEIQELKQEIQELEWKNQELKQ

4H3613-bA = target: T39, 4H3613-bA
T39 chain: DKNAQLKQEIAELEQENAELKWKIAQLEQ

4H584-bA = target: T40, 4H584-bA
T40 chain: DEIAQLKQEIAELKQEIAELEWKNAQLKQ

4H3631-bA = target: T41, 4H3631-bA
T41 chain: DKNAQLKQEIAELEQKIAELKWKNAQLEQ

4H1544-bA = target: T42, 4H1544-bA
T42 chain: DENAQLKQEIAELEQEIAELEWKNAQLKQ

4H3817-bA = target: T43, 4H3817-bA
T43 chain: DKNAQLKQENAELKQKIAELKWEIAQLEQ

4H1985-bA = target: T44, 4H1985-bA
T44 chain: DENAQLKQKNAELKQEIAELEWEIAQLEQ

4H619-bA = target: T45, 4H619-bA
T45 chain: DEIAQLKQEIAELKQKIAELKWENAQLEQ

4H3414-bA = target: T46, 4H3414-bA
T46 chain: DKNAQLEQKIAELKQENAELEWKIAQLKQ

4H570-bA = target: T47, 4H570-bA
T47 chain: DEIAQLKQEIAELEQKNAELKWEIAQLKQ

4H1710-bA = target: T48, 4H1710-bA
T48 chain: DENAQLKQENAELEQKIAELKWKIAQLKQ

4H3638-bA = target: T49, 4H3638-bA
T49 chain: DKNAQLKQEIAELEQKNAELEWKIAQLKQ

4H3628-bA = target: T50, 4H3628-bA
T50 chain: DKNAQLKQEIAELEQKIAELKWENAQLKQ

4H3129-bA = target: T51, 4H3129-bA
T51 chain: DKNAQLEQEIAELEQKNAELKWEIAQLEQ

4H3172-bA = target: T52, 4H3172-bA
T52 chain: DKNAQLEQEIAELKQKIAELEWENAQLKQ

4H906-bA = target: T53, 4H906-bA
T53 chain: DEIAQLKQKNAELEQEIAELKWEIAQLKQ

4H3974-bA = target: T54, 4H3974-bA
T54 chain: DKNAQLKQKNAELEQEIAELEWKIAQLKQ

4H1449-bA = target: T55, 4H1449-bA
T55 chain: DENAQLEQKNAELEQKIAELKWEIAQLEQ

4H1899-bA = target: T56, 4H1899-bA
T56 chain: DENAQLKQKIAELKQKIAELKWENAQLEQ

4H1629-bA = target: T57, 4H1629-bA
T57 chain: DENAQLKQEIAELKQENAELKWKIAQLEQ

4H3858-bA = target: T58, 4H3858-bA
T58 chain: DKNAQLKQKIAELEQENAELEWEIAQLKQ

4H1804-bA = target: T59, 4H1804-bA
T59 chain: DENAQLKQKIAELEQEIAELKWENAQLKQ

4H850-bA = target: T60, 4H850-bA
T60 chain: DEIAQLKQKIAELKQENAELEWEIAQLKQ

B1: 4H1845-bN (peptide)
chain: DENQQLKQKIQELEQKNQELEWKIQELEQ
B1 gave an interaction score (4H3427-bN) of -1.53, an interaction score (4H454-bN) of -0.965 and an interaction score (4H607-bN) of -1.09. It also gave an interaction score (4H883-bN) of -0.686, an interaction score (4H1845-bN) of 0.0957 and an interaction score (4H2697-bN) of -1.96. For the same binder, the interaction score (4H754-bN) was -1.28, the interaction score (4H3185-bN) was -0.558 and the interaction score (4H3782-bN) was -1.24. For the same binder, the interaction score (4H918-bN) was -1.04, the interaction score (4H967-bN) was -1.31 and the interaction score (4H717-bN) was -0.951. For the same binder, the interaction score (4H3354-bN) was -0.397, the interaction score (4H2442-bN) was -0.755 and the interaction score (4H3606-bN) was -0.857. The interaction score (4H462-bN) was -0.741, the interaction score (4H3112-bN) was -0.777 and the interaction score (4H370-bN) was -1.16. For the same binder, the interaction score (4H797-bN) was -0.559, the interaction score (4H3843-bN) was -0.731 and the interaction score (4H687-bN) was -1.5. It also gave an interaction score (4H331-bN) of -1.66, an interaction score (4H338-bN) of -0.586 and an interaction score (4H2618-bN) of -0.877. The interaction score (4H2588-bN) was -1.62, the interaction score (4H619-bN) was -0.153 and the interaction score (4H953-bN) was -1.04. It also gave an interaction score (4H3855-bN) of -0.717, an interaction score (4H4001-bN) of -1 and an interaction score (4H2576-bN) of -1.34. The interaction score (4H2667-bN) was 0.755, the interaction score (4H570-bN) was -2.11 and the interaction score (4H908-bN) was -0.834. It also gave an interaction score (4H2610-bN) of -0.755, an interaction score (4H3189-bN) of -0.856 and an interaction score (4H2729-bN) of -0.274. It also gave an interaction score (4H568-bN) of -1.33 and an interaction score (4H72-bN) of -0.603.

B2: 4H1449-bA (peptide)
chain: DENAQLEQKNAELEQKIAELKWEIAQLEQ
For B2, the interaction score (4H3613-bA) was -0.891, the interaction score (4H584-bA) was -1.3 and the interaction score (4H3631-bA) was 0.473. The interaction score (4H1544-bA) was -0.535, the interaction score (4H3817-bA) was -0.857 and the interaction score (4H1985-bA) was 0.787. It also gave an interaction score (4H619-bA) of -1.52, an interaction score (4H3414-bA) of -1.03 and an interaction score (4H570-bA) of -1.93. For the same binder, the interaction score (4H1710-bA) was 0.786, the interaction score (4H3638-bA) was -1.83 and the interaction score (4H3628-bA) was -0.201. The interaction score (4H3129-bA) was -0.874, the interaction score (4H3172-bA) was -1.06 and the interaction score (4H906-bA) was -0.904. The interaction score (4H3974-bA) was 2.19, the interaction score (4H1449-bA) was -0.613 and the interaction score (4H1899-bA) was -0.25. It also gave an interaction score (4H1629-bA) of -1.11, an interaction score (4H3858-bA) of -0.848 and an interaction score (4H1804-bA) of -0.732. For the same binder, the interaction score (4H850-bA) was -0.723.

B3: 4H1629-bA (peptide)
chain: DENAQLKQEIAELKQENAELKWKIAQLEQ
Binder B3 has an interaction score (4H584-bA) of -1.4, an interaction score (4H3631-bA) of -0.216 and an interaction score (4H3817-bA) of -0.529. The interaction score (4H1985-bA) was -0.329, the interaction score (4H619-bA) was -0.0748 and the interaction score (4H3414-bA) was 0.702. For the same binder, the interaction score (4H570-bA) was -0.594, the interaction score (4H1710-bA) was -0.992 and the interaction score (4H3638-bA) was -0.477. It also gave an interaction score (4H3129-bA) of 0.102, an interaction score (4H2667-bN) of -1.22 and an interaction score (4H3172-bA) of -0.887. For the same binder, the interaction score (4H906-bA) was -0.968, the interaction score (4H3974-bA) was -0.124 and the interaction score (4H1629-bA) was 0.605. The interaction score (4H1804-bA) was -1.39 and the interaction score (4H850-bA) was -1.14.
